Data from patent US20190153112A1 (IMMUTEP S A S, published 2019).

Columns and labels:
[1] = target: human LAG-3 protein (Lymphocyte activation gene-3) on the cell surface (human) (UniProt P18627); experiment: flow cytometry on CHO-LAG-3+ cells; antibody 192 ng/ml
[2] = target: human LAG-3 protein (Lymphocyte activation gene-3) on the cell surface (human) (UniProt P18627); experiment: flow cytometry on CHO-LAG-3+ cells; antibody 6 ng/ml
[3] = target: human LAG-3 protein (Lymphocyte activation gene-3) on the cell surface (human) (UniProt P18627); experiment: flow cytometry on CHO-LAG-3+ cells; antibody 6000 ng/ml
[4] = target: human LAG-3 protein (Lymphocyte activation gene-3) on the cell surface (human) (UniProt P18627); experiment: flow cytometry on CHO-LAG-3+ cells; antibody 0 ng/ml (no-antibody background)
[5] = target: human LAG-3 protein (Lymphocyte activation gene-3) on the cell surface (human) (UniProt P18627); experiment: flow cytometry on CHO-LAG-3+ cells; antibody 605 ng/ml
[6] = target: human LAG-3 protein (Lymphocyte activation gene-3) on the cell surface (human) (UniProt P18627); experiment: flow cytometry on CHO-LAG-3+ cells; antibody 20 ng/ml
[7] = target: human LAG-3 protein (Lymphocyte activation gene-3) on the cell surface (human) (UniProt P18627); experiment: flow cytometry on CHO-LAG-3+ cells; antibody 61 ng/ml
[8] = target: human LAG-3 protein (Lymphocyte activation gene-3) on the cell surface (human) (UniProt P18627); experiment: flow cytometry on CHO-LAG-3+ cells; antibody 1905 ng/ml
[9] = target: T1, human LAG-3 protein (Lymphocyte activation gene-3) on the cell surface (human, UniProt P18627 23-525); experiment: flow cytometry on CD4+ cells of SEB-stimulated PBMCs (Donor 1), from Table 13
T1 construct: also called CD223; CHO LAG-3+
T1 sequence: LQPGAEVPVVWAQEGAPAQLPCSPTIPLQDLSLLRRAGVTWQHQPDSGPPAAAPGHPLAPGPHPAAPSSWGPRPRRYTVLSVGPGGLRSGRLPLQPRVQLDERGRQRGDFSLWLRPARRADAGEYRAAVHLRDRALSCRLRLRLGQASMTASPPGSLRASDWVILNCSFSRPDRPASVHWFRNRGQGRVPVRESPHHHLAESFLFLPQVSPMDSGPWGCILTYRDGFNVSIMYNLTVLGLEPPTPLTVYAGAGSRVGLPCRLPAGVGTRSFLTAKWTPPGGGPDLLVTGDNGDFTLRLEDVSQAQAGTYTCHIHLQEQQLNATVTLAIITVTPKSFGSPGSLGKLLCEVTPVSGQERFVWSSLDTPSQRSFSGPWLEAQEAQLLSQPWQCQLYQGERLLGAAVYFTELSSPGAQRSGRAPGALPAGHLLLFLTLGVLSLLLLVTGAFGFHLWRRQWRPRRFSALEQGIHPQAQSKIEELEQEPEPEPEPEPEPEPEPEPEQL
Description: (§1) LAG-3⁺-transfected CHO cells, or SEB-stimulated PBMCs from a healthy donor were incubated with anti-LAG-3 monoclonal antibody, or an isotype control (mIgG1) for 30 minutes in PBS, BSA 0.5%, Azide 0.1% at 4° C. […] The secondary antibody was washed away, and the CHO cells were directly analyzed by flow cytometry. The PBMCs were phenotyped using CD4-PE-Cy7 and CD8-APC-Cy7.

[10] = target: T1, human LAG-3 protein (Lymphocyte …); experiment: flow cytometry on CD8+ cells of SEB-stimulated PBMCs, mean of three donors
Description: as §1

[11] = target: T1, human LAG-3 protein (Lymphocyte …); experiment: flow cytometry on CD4+ cells of SEB-stimulated PBMCs, mean of three donors
Description: as §1

[12] = target: T1, human LAG-3 protein (Lymphocyte …); experiment: flow cytometry on CD8+ cells of SEB-stimulated PBMCs (Donor 1), from Table 13
Description: as §1

[13] = target: T1, human LAG-3 protein (Lymphocyte …); experiment: flow cytometry on CD4+ cells of SEB-stimulated PBMCs, three donors; reference 17B4
Description: as §1

[14] = target: T1, human LAG-3 protein (Lymphocyte …); experiment: flow cytometry on LAG-3-expressing CHO cells, four independent experiments; reference 17B4
Description: as §1

[15] = target: T1, human LAG-3 protein (Lymphocyte …); experiment: flow cytometry on CD8+ cells of SEB-stimulated PBMCs, three donors; reference 17B4
Description: as §1

human IgG4 (isotype-matched negative control) (antibody)
MFI FITC [1]: 59 MFI
MFI FITC [2]: 37 MFI
MFI FITC [3]: 71 MFI
MFI FITC [4]: 35 MFI
MFI FITC [5]: 46 MFI
MFI FITC [6]: 49 MFI
MFI FITC [7]: 69 MFI
MFI FITC [8]: 77 MFI

B1: mouse monoclonal anti-LAG-3 antibody 13E2 (antibody, V domains shown)
VH: QVTLKESGPGILQPSQTLSLTCSFSGFSLSTSGMGLGWIRQPSGKGLEWLTHIWWDDIKRYNPDLRSRLTISKDTSSSQIFLKIASVDTADTATYYCARIVEGSYSSSYFDVWGAGTTVTVSS
VL: DIVMTQPHKFMSTSVEDRVTITCKASQDVIFDVAWYQQKPGQSPKLLIYSASSRVSGVPDRFTGSGSGTDFTFTISSVQAEDLAVYYCQQHYSTPYTFGGGTTLEIK
notes: Whole mouse monoclonal antibody from a hybridoma; mIgG1 was used as its isotype control
EC50 [9]: 0.1 nM
EC50 [10]: 0.4 nM
EC50 [11]: 0.2 nM
EC50 [12]: 0.3 nM
ratio of mean EC50 against 17B4 [13]: 3.8 times
ratio of mean EC50 against 17B4 [14]: 2.7 times
ratio of mean EC50 against 17B4 [15]: 2.5 times
